US20230287051A1, “INHIBITORS OF COMPLEMENT FACTOR C3 AND THEIR MEDICAL USES” (ZP SPV 3 K/S, priority 2020, published 2023)
Numbered stars: 1 amine (or outer) side, 2 acyl side, 3 side chain; on linkers, the order of the positions; unused ones are H or OH. Bridge positions count the residues as written; N and C are the ends. Square brackets hold non-standard residues; d marks the D form. Side chains are listed from the residue outwards. Peptide text beside a SMILES is read from it. * marks the point of attachment. Trp(1-Me) = Cn1cc(C[C@H](N)C(=O)O)c2ccccc21; C18 diacid = O=C(O)CCCCCCCCCCCCCCCCC(=O)*; γGlu = O=C(O)[C@H](CCC(=O)[*:2])N[*:1]; AEEA = NCCOCCOCC(=O)O; CH2 = C([*:1])[*:2]; Sar = CNCC(=O)O

B1: Compound 28 (peptide)
peptide: Ac-GQSAFCI[Trp(1-Me)]QDW[Sar]EHRCTEGE[AEEA][AEEA]K([γGlu-Gly-γGlu-C18 diacid])-NH2
modifications: bridge 6-16 via methylene thioacetal (-S-CH2-S-)
notes: Synthetic compstatin analogue; also called Comp No 28
B2: Compound 19 (peptide)
peptide: EGSEFCIWQDWGEHRCTEGE
modifications: N-terminal [15-Carboxy-pentadecanoyl]; 1-Me-Trp at 8; Cys6 and Cys16 bridged by methylene thioacetal (-S-CH2-S-); Sar at 12; C-terminal amide
notes: Synthetic compstatin analogue; also called Comp No 19
B3: Compound 2 (peptide)
peptide: Ac-SEFCI[Trp(1-Me)]QDWGEHRC[Sar]EGE[AEEA][AEEA]K([γGlu-Gly-γGlu-C18 diacid])-NH2
modifications: bridge 4-14 via methylene thioacetal (-S-CH2-S-)
notes: Synthetic compstatin analogue; also called Comp No 2
B4: Compound 9 (peptide)
peptide: Ac-SEFCI[Trp(1-Me)]QDW[Sar]EHRCTEGE[AEEA][AEEA]K([γGlu-Gly-γGlu-C18 diacid])-NH2
modifications: bridge 4-14 via methylene thioacetal ‑S‑CH2‑S‑ (CH2I2, DIPEA)
notes: Synthetic compstatin analogue; also called Comp No 9
B5: Compound 27 (peptide)
peptide: Ac-EGESGFCI[Trp(1-Me)]QDW[Sar]EHRCTEGE[AEEA][AEEA]K([γGlu-Gly-γGlu-C18 diacid])-NH2
modifications: bridge 7-17 via methylene thioacetal (-S-CH2-S-)
notes: Synthetic compstatin analogue; also called Comp No 27
B6: Compound 12 (peptide)
peptide: Ac-EFCI[Trp(1-Me)]QDW[Sar]EHRCTEA[AEEA][AEEA]K([γGlu-Gly-γGlu-C18 diacid])-NH2
modifications: bridge 3-13 via methylene thioacetal (-S-CH2-S-)
notes: Synthetic compstatin analogue; also called Comp No 12
B7: Compound 7 (peptide)
peptide: Ac-SEFCI[Trp(1-Me)]QDW[Sar]EHRC[Sar]E[AEEA][AEEA]K([γGlu-Gly-γGlu-C18 diacid])-NH2
modifications: bridge 4-14 via methylene thioacetal (-S-CH2-S-)
notes: Synthetic compstatin analogue; also called Comp No 7
B8: Compound 10 (peptide)
peptide: Ac-SEFCI[Trp(1-Me)]QDW[Sar]EHRCTE[AEEA][AEEA]K([γGlu-Gly-γGlu-C18 diacid])-NH2
modifications: bridge 4-14 via methylene thioacetal (-S-CH2-S-)
notes: Synthetic compstatin analogue; also called Comp No 10
B9: Compound 29 (peptide)
peptide: H-ESGVFCI[Trp(1-Me)]QDW[Sar]EHRCTEGE[AEEA][AEEA]K([γGlu-Gly-γGlu-C18 diacid])-NH2
modifications: bridge 6-16 via methylene thioacetal (-S-CH2-S-)
notes: Synthetic compstatin analogue; also called Comp No 29
B10: Compound 1 (peptide)
peptide: SEFCIWQDWGEHRCTGAES
modifications: N-terminal acetyl; 1-Me-Trp at 6; Cys4 and Cys14 bridged by methylene thioacetal (-S-CH2-S-); C-terminal amide
notes: Synthetic compstatin analogue; also called Comp No 1
B11: Compound 20 (peptide)
peptide: Ac-EGSEFCI[Trp(1-Me)]QDW[Sar]EHRCTEGE[AEEA]ESK([γGlu-C18 diacid])-NH2
modifications: bridge 6-16 via methylene thioacetal (-S-CH2-S-)
notes: Synthetic compstatin analogue; also called Comp No 20
B12: Compound 15 (peptide)
peptide: Ac-[dY]ICI[Trp(1-Me)]QDW[Sar]EHRCTEGE[AEEA]ESK([γGlu-C18 diacid])-NH2
modifications: bridge 3-13 via methylene thioacetal (-S-CH2-S-)
notes: Synthetic compstatin analogue; also called Comp No 15

Target: T1, Human C3 (Complement tech cat #A113c) (human, UniProt P01024 23-1663)
Experiment: cell-based or functional assay
Settings: not given

T1 sequence (P01024 23-1663 limits assumed): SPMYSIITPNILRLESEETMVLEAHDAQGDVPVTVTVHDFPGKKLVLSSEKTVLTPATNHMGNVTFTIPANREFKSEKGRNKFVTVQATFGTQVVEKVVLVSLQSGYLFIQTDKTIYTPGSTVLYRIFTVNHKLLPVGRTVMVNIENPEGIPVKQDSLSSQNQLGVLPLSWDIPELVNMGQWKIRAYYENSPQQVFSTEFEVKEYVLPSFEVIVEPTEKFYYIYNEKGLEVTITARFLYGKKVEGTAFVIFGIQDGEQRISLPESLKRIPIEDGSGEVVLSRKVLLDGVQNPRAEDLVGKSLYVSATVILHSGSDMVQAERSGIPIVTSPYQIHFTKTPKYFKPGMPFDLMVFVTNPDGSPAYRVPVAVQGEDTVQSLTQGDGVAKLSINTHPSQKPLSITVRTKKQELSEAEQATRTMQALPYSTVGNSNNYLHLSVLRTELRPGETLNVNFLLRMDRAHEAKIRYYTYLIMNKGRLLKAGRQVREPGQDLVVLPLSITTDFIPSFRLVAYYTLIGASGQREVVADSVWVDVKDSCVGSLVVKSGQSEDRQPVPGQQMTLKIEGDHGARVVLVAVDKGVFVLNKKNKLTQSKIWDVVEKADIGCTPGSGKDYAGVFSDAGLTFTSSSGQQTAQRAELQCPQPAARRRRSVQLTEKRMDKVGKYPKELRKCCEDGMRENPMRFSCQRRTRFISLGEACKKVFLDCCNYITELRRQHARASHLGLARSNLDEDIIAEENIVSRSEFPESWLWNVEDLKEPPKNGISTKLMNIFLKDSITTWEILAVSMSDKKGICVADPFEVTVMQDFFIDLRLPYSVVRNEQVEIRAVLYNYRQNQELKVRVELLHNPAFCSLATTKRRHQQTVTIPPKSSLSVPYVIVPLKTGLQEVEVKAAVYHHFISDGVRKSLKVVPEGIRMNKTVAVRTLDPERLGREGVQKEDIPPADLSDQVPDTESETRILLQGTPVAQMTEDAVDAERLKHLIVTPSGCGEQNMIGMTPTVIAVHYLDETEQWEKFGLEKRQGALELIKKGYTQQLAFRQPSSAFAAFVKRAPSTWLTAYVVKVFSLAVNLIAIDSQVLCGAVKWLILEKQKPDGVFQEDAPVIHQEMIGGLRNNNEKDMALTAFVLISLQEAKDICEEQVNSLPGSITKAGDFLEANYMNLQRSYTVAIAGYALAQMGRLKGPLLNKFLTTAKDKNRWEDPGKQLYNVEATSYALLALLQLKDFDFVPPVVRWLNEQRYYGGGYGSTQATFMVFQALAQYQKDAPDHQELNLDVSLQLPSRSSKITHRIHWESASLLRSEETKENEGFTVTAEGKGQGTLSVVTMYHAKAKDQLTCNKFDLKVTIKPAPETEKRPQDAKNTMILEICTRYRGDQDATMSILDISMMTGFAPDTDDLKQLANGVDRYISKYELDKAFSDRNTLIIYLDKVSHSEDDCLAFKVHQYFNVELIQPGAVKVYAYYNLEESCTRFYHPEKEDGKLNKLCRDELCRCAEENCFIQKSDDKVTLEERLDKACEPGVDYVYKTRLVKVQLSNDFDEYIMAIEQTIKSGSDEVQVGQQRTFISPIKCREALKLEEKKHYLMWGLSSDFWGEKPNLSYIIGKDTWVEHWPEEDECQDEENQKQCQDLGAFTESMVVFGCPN

B1 and B2 cannot be ordered by “IC50 [nM], in vitro inhibition of hemolysis (classical complement pathway; human serum, sensitized sheep RBC)” value (shortened to “IC50 [nM], in vitro inhibition”): < 100 nM for the first, < 250 nM for the second.

B3 and B4 cannot be ordered by “IC50 [nM], in vitro inhibition” value: < 500 nM for the first, < 250 nM for the second.

B5 and B6 cannot be ordered by “IC50 [nM], in vitro inhibition” value: < 100 nM for the first, < 100 nM for the second.

B7 and B8 cannot be ordered by “IC50 [nM], in vitro inhibition” value: < 500 nM for the first, < 250 nM for the second.

B9 and B10 cannot be ordered by “IC50 [nM], in vitro inhibition” value: < 100 nM for the first, < 100 nM for the second.

B11 and B12 cannot be ordered by “IC50 [nM], in vitro inhibition” value: < 250 nM for the first, < 250 nM for the second.

Test system: classical complement pathway
Experiment: In vitro haemolysis assay (inhibition of classical complement pathway)
Type: cell-based
Settings: human serum, sensitized sheep RBC, 30 minutes at 37° C., absorbance at 405 nm, n=>2; read-out: IC50, inhibition of hemolysis
Description: The in vitro effect of some of the compounds described herein was assessed by measuring their inhibitory effect of the classical complement pathway in a haemolysis assay.
Briefly, compounds described herein and reference compounds were dissolved in DMSO and diluted in Tris/Casein Assay Buffer (10 mM Tris, 145 mM NaCl, 0.5 mM MgCl2, 0.15 mM CaCl2, and 0.1% W/V casein, adjusted to pH 7.4) as 9-point serial dilutions in a 96-well plate. Sensitized sheep red blood cells (RBC) coated with rabbit anti-sheep erythrocyte antiserum (Complement Technology, Inc., TX, USA) were washed in Tris/asein Assay Buffer. 50 μL from each well of diluted compound was added to a 96-well plate containing 50 μL diluted human serum (Complement Technology, Inc., TX, USA) and incubated for 15 minutes at room temperature. The serum dilution factor was optimized for every serum batch to obtain 70-90% of maximal haemolysis using the protocol. Then 50 μL sensitized sheep RBCs were added to all wells ([…]).
After 30 minutes of incubation at 37° C. with gentle agitation, the reaction was stopped by addition of 50 μL Tris STOP Buffer per well (10 mM EDTA, 10 mM Tris, 145 mM NaCl adjusted to pH 7.4). The RBCs were then removed by centrifugation and the resulting supernatant measured for hemolysis by absorbance at 405 nm.
The response was normalized relative to a positive and negative control (vehicle) to calculate the IC50 (nM) from the concentration response curve using the 4-parameter logistic (4PL) nonlinear model for curve fitting (Table 2). All values are based on n=>2 independent determinations.

CC[C@H](C)[C@@H]1NC(=O)[C@@H](NC(=O)[C@H](Cc2ccccc2)NC(=O)[C@H](CCC(=O)O)NC(=O)[C@H](CO)NC(C)=O)CSCSC[C@@H](C(=O)N(C)CC(=O)N[C@@H](CCC(=O)O)C(=O)NCC(=O)N[C@@H](CCC(=O)O)C(=O)NCCOCCOCC(=O)NCCOCCOCC(=O)N[C@@H](CCCCNC(=O)CC[C@H](NC(=O)CNC(=O)CC[C@H](NC(=O)CCCCCCCCCCCCCCCCC(=O)O)C(=O)O)C(=O)O)C(N)=O)NC(=O)[C@H](CCCNC(=N)N)NC(=O)[C@H](Cc2c[nH]cn2)NC(=O)[C@H](CCC(=O)O)NC(=O)CNC(=O)[C@H](Cc2c[nH]c3ccccc23)NC(=O)[C@H](CC(=O)O)NC(=O)[C@H](CCC(N)=O)NC(=O)[C@H](Cc2cn(C)c3ccccc23)NC1=O [Compound 2, Ac-SEF[C(1)]I[1-Me-Trp]QDWGEHR[C(1)][Sar]EGE[Peg3][Peg3]-K([17-Carboxy-heptadecanoyl][yGlu]G[yGlu])-NH2] (Ac-SEFCI[Trp(1-Me)]QDWGEHRC[Sar]EGE[AEEA][AEEA]K([γGlu-Gly-γGlu-C18 diacid])-NH2; linker 4-14 via CH2) and CC[C@H](C)[C@H](NC(=O)[C@H](N)Cc1ccc(O)cc1)C(=O)N[C@H]1CSSC[C@@H](C(=O)N(C)[C@H](C(N)=O)[C@@H](C)CC)NC(=O)[C@H](CCCNC(=N)N)NC(=O)[C@H](Cc2c[nH]cn2)NC(=O)[C@H](C)NC(=O)CN(C)C(=O)[C@H](Cc2c[nH]c3ccccc23)NC(=O)[C@H](CC(=O)O)NC(=O)[C@H](CCC(N)=O)NC(=O)[C@H](Cc2cn(C)c3ccccc23)NC(=O)[C@H](C(C)C)NC1=O [Cp40, H-{d}YIC(*)V[1-Me-Trp]QDW[SarJAHRC(*)[N-Me-Ile]-NH2, reference compound] cannot be ordered by IC50: < 500 nM for the first, < 100 nM for the second.

CC[C@H](C)[C@@H]1NC(=O)[C@@H](NC(=O)[C@H](Cc2ccccc2)NC(=O)[C@H](CCC(=O)O)NC(=O)[C@H](CO)NC(C)=O)CSCSC[C@@H](C(=O)N(C)CC(=O)N[C@@H](CCC(=O)O)C(=O)NCCOCCOCC(=O)NCCOCCOCC(=O)N[C@@H](CCCCNC(=O)CC[C@H](NC(=O)CNC(=O)CC[C@H](NC(=O)CCCCCCCCCCCCCCCCC(=O)O)C(=O)O)C(=O)O)C(N)=O)NC(=O)[C@H](CCCNC(=N)N)NC(=O)[C@H](Cc2c[nH]cn2)NC(=O)[C@H](CCC(=O)O)NC(=O)CN(C)C(=O)[C@H](Cc2c[nH]c3ccccc23)NC(=O)[C@H](CC(=O)O)NC(=O)[C@H](CCC(N)=O)NC(=O)[C@H](Cc2cn(C)c3ccccc23)NC1=O [Compound 7] (Ac-SEFCI[Trp(1-Me)]QDW[Sar]EHRC[Sar]E[AEEA][AEEA]K([γGlu-Gly-γGlu-C18 diacid])-NH2; linker 4-14 via CH2) and CC[C@H](C)[C@@H]1NC(=O)[C@@H](NC(=O)[C@H](Cc2ccccc2)NC(=O)[C@H](CCC(=O)O)NC(=O)[C@H](CO)NC(C)=O)CSCSC[C@@H](C(=O)N[C@H](C(=O)NCC(=O)N[C@@H](C)C(=O)N[C@@H](CCC(=O)O)C(=O)N[C@@H](CO)C(N)=O)[C@@H](C)O)NC(=O)[C@H](CCCNC(=N)N)NC(=O)[C@H](Cc2c[nH]cn2)NC(=O)[C@H](CCC(=O)O)NC(=O)CNC(=O)[C@H](Cc2c[nH]c3ccccc23)NC(=O)[C@H](CC(=O)O)NC(=O)[C@H](CCC(N)=O)NC(=O)[C@H](Cc2cn(C)c3ccccc23)NC1=O [Compound 1, Ac-SEF[C(1)]I[[1-Me-Trp]QDWGEHR[C(1)]TGAES-[NH2]] (Ac-SEFCI[Trp(1-Me)]QDWGEHRCTGAES-NH2; linker 4-14 via CH2) cannot be ordered by IC50: < 500 nM for the first, < 100 nM for the second.

“Ac-EGSAY[C(1)]I[1-Me-Trp]QDWGEHR[C(1)][Sar]EK[yGlu]-K([17-Carboxy-heptadecanoyl][yGlu][Peg3][Peg3])-NH2 [Compound 3]” and “Ac-EQEVF[C(1)]I[1-Me-Trp]QDW[Sar]EHR[C(1)]TEGE[Peg3][Peg3]-K([17-Carboxy-heptadecanoyl][yGlu]G[yGlu])-NH2 [Compound 22]” cannot be ordered by IC50: < 500 nM for the first, < 100 nM for the second.

For “Ac-SEF[C(1)]IWQDW[Sar]EHR[C(1)]TEGE[Peg3]ES-K([17-Carboxy-heptadecanoyl][yGlu])-NH2 [Compound 16]”, the IC50 was < 1000 nM.

Target: T1, Human C3 (Complement tech cat #A113c)
Experiment: SPR (Biacore X100, 25 C), human C3 amine-coupled on CM5 chip, peptide as analyte, 1:1 Langmuir fit
Settings: not given
Description: Surface plasmon resonance (SPR) was used to characterize peptides with respect to their binding affinity (Kd) for C3.
For interaction experiments, a multi-cycle experiment approach was used and performed using a BiacoreX100™ instrument (GE Healthcare) at 25° C. Peptides were injected in increasing concentration series (5 different concentrations and buffer reference) for 180 seconds at a flow rate of 30 μL/min in a buffer consisting of 50 mM Tris buffer at pH 7.4, with 150 mM NaCl and 0.05% Tween20. This was followed by a dissociation period for 10 min.
Sensorgrams were double-referenced (reference surface, blanks) prior to analysis of the kinetic profiles by globally fitting data to a 1:1 Langmuir binding model to obtain association and dissociation rates for calculation of the equilibrium dissociation constant Kd (Table 3). Each peptide was tested at in at least 2 independent experiments.

Going from B3 to B6, the Kd falls from 54 nM to 12 nM (4.5-fold). The second binds more tightly here.

B7 and B10 are within 1.5-fold of each other in Kd: 21 nM for the first, 25 nM for the second.

Molecule B12 has a Kd of 16 nM.
